In US20220002363A1, “COMPOSITIONS AND METHODS FOR TREATING PULMONARY DISEASE” (United States Government As Represented By The Department …, priority 2020, published 2022):
“Also recorded” adds a separate entry of the source.

Target: T1, Fas (Homo sapiens, UniProt P25445)
T1 construct: host or cells: Jurkat (human leukemic T lymphocytes)
T1 sequence (P25445 26-335): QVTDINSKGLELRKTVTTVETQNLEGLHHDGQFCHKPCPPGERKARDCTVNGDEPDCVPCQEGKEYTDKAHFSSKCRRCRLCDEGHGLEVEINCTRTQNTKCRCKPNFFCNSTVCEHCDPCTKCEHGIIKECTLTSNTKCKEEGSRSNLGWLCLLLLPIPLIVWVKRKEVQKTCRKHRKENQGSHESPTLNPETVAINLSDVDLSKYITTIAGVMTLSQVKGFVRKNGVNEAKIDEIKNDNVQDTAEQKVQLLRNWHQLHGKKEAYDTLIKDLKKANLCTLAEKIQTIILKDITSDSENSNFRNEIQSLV
Experiment: Caspase 3/7 activity in Jurkat cells with Fas-activating antibody CH-11 and mut-sFasL at different molar ratios
Assay type: cell-based
Details: 5-hour incubation
Protocol: The mixtures were incubated for 2 hours in 96-well plates pre-coated with recombinant hsFas (250 ng/ml). After washing unbound material, biotin was detected using HRP conjugated Streptavidin. […] The sFasL bound to Fas was detected using polyclonal anti-human FasL antibodies. […] Different molar ratios of the Fas-activating antibody CH-11 and mut-sFasL were added, and caspase 3/7 activity measured after 5 hours. […] Data represent the results from three separate experiments, each done in duplicate, and were analyzed by 2-way ANOVA with Sidak's post hoc analysis. […] Each dot represents individual data; lines represent means±SD. *=P<0.05; **=P<0.01, ***P<0.001.
Antibodies and Reagents. […] FLAG tagged mut-sFasL was detected using HRP anti-FLAG monoclonal antibody (Sigma-Aldrich, Cat #A85920). […]
Measurements of apoptotic cascade activation. Apoptotic cascade activation was assessed by determining caspase 3/7 activity and Annexin V externalization. Caspase-3/7 activity was measured using a commercial substrate (Caspase-Glo 3/7 Assay, Promega, Madison, Wis., Cat #G8090) following manufacturer's instructions. Annexin V was measured with a luminescent commercial assay that allows for measurement of annexin V externalization in adherent cells (RealTime-Glo Annexin V assay, Promega, Madison, Wis., Cat #JA1011). Luminescence was measured with a Synergy H4 Microplate Reader (BioTek, Winooski, Vt.). […]

- effect on CH11 activity at very high molar ratios: increased CH11 activity
B1: mut-sFasL: mutant sFasL molecule in which 8 charged amino acids in the 26 amino acid stalk region were changed to alanine (protein)
chain: QLFALQAALAALAASTSQMATASSLAKQIGHPSPPPEKKELRKVAHLTGKSNSRSMPLEWEDTYGIVLLSGVKYKKGGLVINETGLYFVYSKVYFRGQSCNNLPLSHKVYMRNSKYPQDLVMMEGKMMSYCTTGQMWARSSYLGAVFNLTSADHLYVNVSELSLVNFEESQTFFGLYKL
- effect on caspase 3/7 activation induced by CH11 (different molar ratios of mut-sFasL and antibody): did not attenuate the caspase 3/7 activation induced by CH11; also recorded: did not inhibit the activity of CH11
